In paper PMC10873595, “Filament structure and subcellular organization of the bacterial intermediate filament–like protein crescentin” (Proceedings of the National Academy of Sciences of the …, 2024):
Like-named read-outs stand apart in the source and are kept apart here.

T1: CreS-His (full-length CreS followed by GSHHHHHH) (Caulobacter crescentus (vibrioides) …)
T1 chain: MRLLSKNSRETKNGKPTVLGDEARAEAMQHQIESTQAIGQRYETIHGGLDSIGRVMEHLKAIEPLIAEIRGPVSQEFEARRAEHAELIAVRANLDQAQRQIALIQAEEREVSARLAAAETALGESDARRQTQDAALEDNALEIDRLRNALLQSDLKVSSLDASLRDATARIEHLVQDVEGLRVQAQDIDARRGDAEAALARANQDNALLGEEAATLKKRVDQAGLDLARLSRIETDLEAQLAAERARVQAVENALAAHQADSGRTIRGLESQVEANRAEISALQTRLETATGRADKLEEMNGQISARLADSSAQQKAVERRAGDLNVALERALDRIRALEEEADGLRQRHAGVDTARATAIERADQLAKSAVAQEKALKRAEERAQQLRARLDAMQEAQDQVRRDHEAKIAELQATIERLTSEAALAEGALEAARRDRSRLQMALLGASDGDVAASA

B1: Megabody MB13 (NB13, YgjK) (VHH)
VHH: AHNTESGEMLFTVKKDSLRLSCASSRSIDGINIMRWYRQAPGKQRGMVAVVTGWGSTNYVDSVKGRFIISRDSAKDTVYLQMNNLKPEDTAVYSCNAIYRGSEYWGQGTQVTVSS
B2: nanobody 13 (NB13) (VHH)
VHH: QVQLQESGGGLVQTGGSLRLSCASSRSIDGINIMRWYRQAPGKQRGMVAVVTGWGSTNYVDSVKGRFIISRDSAKDTVYLQMNNLKPEDTAVYSCNAIYRGSEYWGQGTQVTVSS
notes: camelid nanobody raised against purified CreSwt; also called CreS-specific nanobody; clone No. 13; source: E. coli WK6, periplasmic extract, purified (HisTrap); not shown: HA, C-terminal, kept

Tests used:
[1] = target: T1, CreS-His (full-length CreS followed by …)
[2] = target: T1, CreS-His (full-length CreS followed by …); assay: far-Western, overlay or dot blot; cleared lysates of E. coli C41 (DE3) expressing CreS-His variants resolved by SDS-PAGE, blotted, probed with NB13 (7 µg/mL) then α-HA-peroxidase; conditions: one partner purified

Binder	binding result [1]	binding result [2]
B1	binds	–
B2	–	binds
